Data on 125 sequences can be found in the supplement of paper PMC9112550, “Optimization of the antimicrobial peptide Bac7 by deep mutational scanning” (BMC Biology, 2022).
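Also: peptides expressed intracellularly from a pBAD plasmid library in pooled LB shake-flask culture, induced with 0.3% L-arabinose, DNA abundance read by NGS, three biological replicates, DESeq2 with apeglm shrinkage.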

This series concerns Escherichia coli TOP10. Nature of the series: shrunken log2 fold change of peptide-encoding DNA abundance (4.5 h post-induction vs induction); higher = less antimicrobial activity (less host growth inhibition). The following applies: time post-induction: 4.5 h; library: site-saturation at positions 5, 18, 19, 20.
As to RRIRQRPPRLPRPRPRPFFRPRP, the “shrunken log2 fold change” value was -0.236. Turning to RRIRDRPPRLPRPRPRPNQYPRP, the “shrunken log2 fold change” value is -0.428. Then RRIRTRPPRLPRPRPRPKFYPRP, with -0.272; and RRIRYRPPRLPRPRPRPMTYPRP, with -0.0131.

For the sequence RRIRARPPRLPRPRPRPQSLPRP, the “shrunken log2 fold change” value came to 0.026. Turning to RRIRLRPPRLPRPRPRPKGMPRP, the “shrunken log2 fold change” value was -0.0948. On to RRIRYRPPRLPRPRPRPRNEPRP, for which the “shrunken log2 fold change” value was -0.0133. As to RRIRFRPPRLPRPRPRPWEYPRP, the “shrunken log2 fold change” value turned out to be 0.0231. As to RRIRMRPPRLPRPRPRPHVCPRP, the “shrunken log2 fold change” value was -0.107. As for RRIRARPPRLPRPRPRPMYNPRP, the figure is -0.48; as for RRIRYRPPRLPRPRPRPTQHPRP, -0.309. As to RRIRDRPPRLPRPRPRPPVWPRP, the “shrunken log2 fold change” value amounted to 1.04. Then RRIRHRPPRLPRPRPRPNNRPRP, with -0.329. Turning to RRIRWRPPRLPRPRPRPVVHPRP, the “shrunken log2 fold change” value was -0.102. Consider RRIRARPPRLPRPRPRPVDWPRP, for which the “shrunken log2 fold change” value was 1.01. Regarding RRIRDRPPRLPRPRPRPQHMPRP, the “shrunken log2 fold change” value is -0.11. Turning to RRIRYRPPRLPRPRPRPDIPPRP, the “shrunken log2 fold change” value was -0.119. Then RRIRHRPPRLPRPRPRPMSTPRP, with -0.12; and RRIRHRPPRLPRPRPRPYKRPRP, with -0.051; and RRIRARPPRLPRPRPRPSTHPRP, with -0.0532. With RRIRCRPPRLPRPRPRPDGTPRP, the “shrunken log2 fold change” value amounted to 0.105. For RRIRFRPPRLPRPRPRPPKHPRP, the “shrunken log2 fold change” value was found to be 0.292. For RRIRPRPPRLPRPRPRPCYAPRP, the “shrunken log2 fold change” value was -0.414. Then RRIRFRPPRLPRPRPRPHTRPRP, with -0.223; and RRIRRRPPRLPRPRPRPLPEPRP, with 0.731. Regarding RRIRWRPPRLPRPRPRPPKHPRP, the “shrunken log2 fold change” value came out at 0.272.

Consider RRIRNRPPRLPRPRPRPQPKPRP, for which the “shrunken log2 fold change” value amounted to 0.0668.

Take RRIRDRPPRLPRPRPRPTSFPRP: the “shrunken log2 fold change” value is -0.0323. Turning to RRIRLRPPRLPRPRPRPMQLPRP, the “shrunken log2 fold change” value was -0.21. As to RRIRRRPPRLPRPRPRPGCLPRP, the “shrunken log2 fold change” value is 0.702. RRIRKRPPRLPRPRPRPHPHPRP: the “shrunken log2 fold change” value came out at 2.25. RRIRPRPPRLPRPRPRPPHQPRP: the “shrunken log2 fold change” value came to 0.146. As for RRIRWRPPRLPRPRPRPFLQPRP, the figure is -0.499; as for RRIRLRPPRLPRPRPRPRNGPRP, -0.0949; as for RRIRYRPPRLPRPRPRPDSEPRP, -0.0121.

In the case of RRIRFRPPRLPRPRPRPKPDPRP, the “shrunken log2 fold change” value was found to be 0.463. Take RRIRFRPPRLPRPRPRPLSQPRP: the “shrunken log2 fold change” value is -0.271. Regarding RRIRIRPPRLPRPRPRPNKRPRP, the “shrunken log2 fold change” value is -0.368. Turning to RRIRARPPRLPRPRPRPPWYPRP, the “shrunken log2 fold change” value was 0.139. Take RRIRERPPRLPRPRPRPCDLPRP: the “shrunken log2 fold change” value is -0.01. As for RRIRNRPPRLPRPRPRPPTPPRP, the “shrunken log2 fold change” value came to 0.56.

With RRIRPRPPRLPRPRPRPNFHPRP, the “shrunken log2 fold change” value was -0.169. Consider RRIRGRPPRLPRPRPRPKLKPRP, for which the “shrunken log2 fold change” value came out at 0.862. As to RRIRARPPRLPRPRPRPNWEPRP, the “shrunken log2 fold change” value is -0.0132. Regarding RRIRCRPPRLPRPRPRPKNVPRP, the “shrunken log2 fold change” value was -0.258. As for RRIRVRPPRLPRPRPRPHKMPRP, the “shrunken log2 fold change” value was -0.264. Turning to RRIRWRPPRLPRPRPRPVQYPRP, the “shrunken log2 fold change” value was -0.108.

RRIRARPPRLPRPRPRPYNWPRP: the “shrunken log2 fold change” value is -0.481.

As to RRIRWRPPRLPRPRPRPVPNPRP, the “shrunken log2 fold change” value came to 0.0838. RRIRERPPRLPRPRPRPSYMPRP: the “shrunken log2 fold change” value was -0.0864. In the case of RRIRRRPPRLPRPRPRPQQNPRP, the “shrunken log2 fold change” value stood at 0.0713.

With RRIRTRPPRLPRPRPRPTCDPRP, the “shrunken log2 fold change” value worked out at 0.0699. For RRIRKRPPRLPRPRPRPYTWPRP, the “shrunken log2 fold change” value is -0.231. Then RRIRCRPPRLPRPRPRPLSCPRP, with -0.184. Turning to RRIRARPPRLPRPRPRPPDEPRP, the “shrunken log2 fold change” value is 0.338. Then RRIRFRPPRLPRPRPRPDGKPRP, with -0.3; and RRIRVRPPRLPRPRPRPMQAPRP, with -0.0023.

For RRIRTRPPRLPRPRPRPDHWPRP, the “shrunken log2 fold change” value came to 0.0335. Turning to RRIRRRPPRLPRPRPRPRNRPRP, the “shrunken log2 fold change” value was -0.0263.

Turning to RRIRWRPPRLPRPRPRPHTPPRP, the “shrunken log2 fold change” value turned out to be 0.0133. As to RRIRQRPPRLPRPRPRPDRNPRP, the “shrunken log2 fold change” value was -0.176. RRIRRRPPRLPRPRPRPCKLPRP: the “shrunken log2 fold change” value was determined as 0.00583. RRIRRRPPRLPRPRPRPRPNPRP: the “shrunken log2 fold change” value turned out to be 0.624.

In the case of RRIRGRPPRLPRPRPRPGLGPRP, the “shrunken log2 fold change” value worked out at 1.67. Then RRIRWRPPRLPRPRPRPTLTPRP, with 0.697; and RRIRFRPPRLPRPRPRPNDSPRP, with -0.0675; and RRIRARPPRLPRPRPRPPEAPRP, with 0.699. As to RRIRFRPPRLPRPRPRPPSWPRP, the “shrunken log2 fold change” value was found to be 0.4.

On to RRIRLRPPRLPRPRPRPAKFPRP, for which the “shrunken log2 fold change” value worked out at 0.0249. As for RRIRQRPPRLPRPRPRPRQYPRP, the “shrunken log2 fold change” value is -0.163. On to RRIRFRPPRLPRPRPRPVLVPRP, for which the “shrunken log2 fold change” value is -0.288. For the sequence RRIRDRPPRLPRPRPRPTGDPRP, the “shrunken log2 fold change” value came to 0.209.

As for RRIRHRPPRLPRPRPRPQDTPRP, the “shrunken log2 fold change” value is -0.374. RRIRMRPPRLPRPRPRPSPPPRP: the “shrunken log2 fold change” value was found to be 0.74. RRIRHRPPRLPRPRPRPTNPPRP: the “shrunken log2 fold change” value is -0.363.

Consider RRIRLRPPRLPRPRPRPELYPRP, for which the “shrunken log2 fold change” value is -0.0383. Turning to RRIRIRPPRLPRPRPRPFQRPRP, the “shrunken log2 fold change” value was -0.0107. Turning to RRIRERPPRLPRPRPRPYDQPRP, the “shrunken log2 fold change” value was -0.518. Regarding RRIRIRPPRLPRPRPRPWAFPRP, the “shrunken log2 fold change” value was -0.0187. With RRIRKRPPRLPRPRPRPKGSPRP, the “shrunken log2 fold change” value stood at 0.436.

For RRIRYRPPRLPRPRPRPWGFPRP, the “shrunken log2 fold change” value was -0.167. For RRIRWRPPRLPRPRPRPRTWPRP, the “shrunken log2 fold change” value is 0.292. Consider RRIRWRPPRLPRPRPRPMGEPRP, for which the “shrunken log2 fold change” value amounted to 0.0775.

Turning to RRIRKRPPRLPRPRPRPDEHPRP, the “shrunken log2 fold change” value is 0.0292.

With RRIRDRPPRLPRPRPRPCAMPRP, the “shrunken log2 fold change” value was found to be 0.259. With RRIRWRPPRLPRPRPRPKIFPRP, the “shrunken log2 fold change” value was -0.249. Consider RRIRLRPPRLPRPRPRPPKTPRP, for which the “shrunken log2 fold change” value worked out at 0.175.

Turning to RRIRKRPPRLPRPRPRPFFRPRP, the “shrunken log2 fold change” value is 0.0596. As for RRIRERPPRLPRPRPRPDRNPRP, the figure is -0.25. Consider RRIRGRPPRLPRPRPRPFSKPRP, for which the “shrunken log2 fold change” value was 0.164. For RRIRGRPPRLPRPRPRPIHDPRP, the “shrunken log2 fold change” value was -0.126.

In the case of RRIRKRPPRLPRPRPRPFHYPRP, the “shrunken log2 fold change” value was -0.0954. For the sequence RRIRLRPPRLPRPRPRPKEWPRP, the “shrunken log2 fold change” value was 0.157.

As to RRIRWRPPRLPRPRPRPSPAPRP, the “shrunken log2 fold change” value came out at 0.348. For RRIRYRPPRLPRPRPRPWLMPRP, the “shrunken log2 fold change” value is -0.0285. Turning to RRIRQRPPRLPRPRPRPDMAPRP, the “shrunken log2 fold change” value is 0.0464. Regarding RRIRTRPPRLPRPRPRPTARPRP, the “shrunken log2 fold change” value turned out to be 0.0618. Turning to RRIRGRPPRLPRPRPRPDMDPRP, the “shrunken log2 fold change” value came out at 0.00342.

With RRIRPRPPRLPRPRPRPVAQPRP, the “shrunken log2 fold change” value is 0.123. RRIRTRPPRLPRPRPRPRDNPRP: the “shrunken log2 fold change” value was -0.239. Turning to RRIRIRPPRLPRPRPRPESPPRP, the “shrunken log2 fold change” value was -0.135. For the sequence RRIRKRPPRLPRPRPRPYLYPRP, the “shrunken log2 fold change” value was -0.404. Regarding RRIRVRPPRLPRPRPRPSEGPRP, the “shrunken log2 fold change” value was -0.116.

Regarding RRIRHRPPRLPRPRPRPYQRPRP, the “shrunken log2 fold change” value is 0.0916. For RRIRVRPPRLPRPRPRPCIDPRP, the “shrunken log2 fold change” value was -0.106.

Turning to RRIRYRPPRLPRPRPRPSAIPRP, the “shrunken log2 fold change” value is -0.939.

Consider RRIRIRPPRLPRPRPRPWCNPRP, for which the “shrunken log2 fold change” value was -0.33. As to RRIRSRPPRLPRPRPRPMVLPRP, the “shrunken log2 fold change” value was found to be 0.114. As for RRIRYRPPRLPRPRPRPGRIPRP, the “shrunken log2 fold change” value was found to be 0.0959. Take RRIRMRPPRLPRPRPRPKCEPRP: the “shrunken log2 fold change” value stood at 0.52. Consider RRIRYRPPRLPRPRPRPYDLPRP, for which the “shrunken log2 fold change” value is -0.0181. On to RRIRTRPPRLPRPRPRPVPCPRP, for which the “shrunken log2 fold change” value was -0.0501. RRIRKRPPRLPRPRPRPTMQPRP: the “shrunken log2 fold change” value turned out to be 0.626. In the case of RRIRSRPPRLPRPRPRPHHKPRP, the “shrunken log2 fold change” value was -0.564. In the case of RRIRVRPPRLPRPRPRPWGFPRP, the “shrunken log2 fold change” value amounted to 0.0189. As for RRIRNRPPRLPRPRPRPWLIPRP, the figure is -0.0217; as for RRIRKRPPRLPRPRPRPVTQPRP, 0.169; as for RRIRVRPPRLPRPRPRPTCHPRP, -0.0606. Regarding RRIRKRPPRLPRPRPRPSTWPRP, the “shrunken log2 fold change” value was -0.18. As to RRIRTRPPRLPRPRPRPVIQPRP, the “shrunken log2 fold change” value is -0.202. Regarding RRIRFRPPRLPRPRPRPHFPPRP, the “shrunken log2 fold change” value is -0.212. As for RRIRFRPPRLPRPRPRPALGPRP, the “shrunken log2 fold change” value amounted to 0.423. For the sequence RRIRDRPPRLPRPRPRPWAKPRP, the “shrunken log2 fold change” value was -0.0135.

RRIRCRPPRLPRPRPRPEKKPRP: the “shrunken log2 fold change” value was 0.0741.

For RRIRNRPPRLPRPRPRPYCFPRP, the “shrunken log2 fold change” value is -0.516.
